Results reported in patent US20220061310A1.

Target: PDGF receptor PDGFRβ on the surface of 293-SL/PR cells (transformed 293T cell line)
Experiment: cell-based or functional assay

“recombinant human PDGF B (rhPDGF B) (from UniProt P01127 82-190) (ligand)” was tested, and the bioactivity by luciferase assay in 293-SL/PR reporter cells; PDGF at 30 ng/mL lyophilized with 3 mg/mL collagen (experimental group) was 310000 RLU/sec and the bioactivity by luciferase assay in 293-SL/PR reporter cells; PDGF solution (control group) at 120 ng/mL was 340000 RLU/sec.
